Data from the nanobody polyreactivity screen of Harvey et al. (2022).

Experiment: yeast display, Sf9 membrane polyspecificity reagent, FACS + sequencing; frameworks hold sequencing errors
Procedure, shortened: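 After 36–48 hours of galactose induction, yeast (Saccharomyces cerevisiae BJ5465) displaying a synthetic nanobody library were stained at 4 °C for 1 hour with 10% biotinylated, detergent-solubilized Sf9 membrane reagent. Streptavidin microbeads enriched the stained cells before FACS sorting into low and high (top ~1%) gates on anti-HA and streptavidin fluorescence. Each clone's polyreactivity label reflects its gate of origin.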

| Sequence | polyreactivity (PSR sort gate) |
| --- | --- |
| QVQLVESRGGLVQAGGSLRLSCGASGFIFKPYAMGWYRQAPGKERELVASISTGARTYYADSVKGRFTISRDNAKNTVYLQMNSLKPEDTGVYYCAAAYSRWITRYDYWGQGTQVTVSS | high polyreactivity |
| QVQLVESRGGLVQAGGSLRLSCPASGFTNWRNDMGWYRQAPGKERELVADISTAGRTYYADSVKGRFTISRDNAKNTVYLQMNSLNPEDTAVYYCAKRSYYKDQPRYGYWGQGTQVTVSS | low polyreactivity |
| QVQLVESRGGLVQAGGSLRLSCPDSGITLSEYAMGWYRQAPGKERELVATISWRGGTTYYADSVKGLFTISRDNAKNTVSLQMIILNPEDTAVYYCAASWWSFGCYTWKAYDYWGQGTQVTVSS | high polyreactivity |
| QVQLVESRGGLVQAGGSLRLSSAASAFIFGSNAMGWYRQAPGKERELVAAISRSGGSTYYADSVKGRFTISRDNAKKTVYLQMNSLKPEDTAVYYCNVDLWPFVYSWWSYDYWGPGTQVTVSS | high polyreactivity |
| QVQLVESRGGLVQAGGSLRLSSAASGSIIWYYAMGWYRQAPGKERELVAAITVSGGSTYYADSVKGRFTISRDNAKNTVYLQMNSLKPEDSAVYYCAARYISLSGDEYDYWGQGTQVTVSA | low polyreactivity |
| QVQLVESRGGLVQAGRSLRLSCAASGSTFVQYVMGWYRQAPGKERELVAAITRSGGSTYYADSVKGRFTISRDNAKNTVYLHMNSLKPEDTAVYYCAAVPWRRSTRYDYWGQGTQVTVSS | high polyreactivity |
| QVQLVESRGGLVQAGVSLRLSCASSGRIVGWYAMGWYIQAPGKERELVAVITWSDGRTYYADSVKGRFTISRDNAKNTVYLQMNSLKPEDTAVFYCAAADWITEYDYWGQGTQVTVSS | low polyreactivity |
| QVQLVESRGGLVQAGVSLRLSCSASGSIFPYYAMGWYRQAPGKEREFVASISSVTSTYADSVKGRFTISRDNAKNTVYFQMYILIPEDTAVYYFAADRAYSWYSVSRNNYWGPGTQVTVSS | low polyreactivity |
| QVQLVESRGRLVQAGGSLRLSCAASGFSFVINDMGRYRQAPGKERELVADITSGGDTYYADSVKGRFTISRDNAKNTVYLQKNSLKPEDTAVYYCAADIYRDLIYLLYGYWGQGTQVTVSS | low polyreactivity |
| QVQLVESRGVLVQAGGSLRLSCAASGRTFYFYVKGWYIQEPGKERELVARISYSDGSTYYADSVKGRFTISRDNAKNTVYLQMNSLKPEDTAVYYCNAYDPYFGRRYDYWGQGTQVTVSS | low polyreactivity |
| QVQLVESRGVLVQAGGSLRLSCAASGSNFYVYAMGWYRPAPGKERELVAGISWSADSTYYADSVKGRFTISRDNAKYTVYLQMNSLKPEDSAVYYCATDRYPTRRYDYWGQGTQVTVSS | low polyreactivity |
| QVQLVESRVGLVQAGGSLRLSCAASGITLYYYALGWYRHAPGKEREFVAAITWRGTTTYYADSVKGPFTISRDNAKNTVYLQMNSLKPEDTALYYCAAEHEQRVADYYYWGQGTQVTVSS | low polyreactivity |
| QVQLVESSGGLVQAGGSLRLRCAASGMISEYNAMGWSRQAPGKERELVAAITWNGGSTFYADSVKGRFTISRDNAKNTVYLQMNSLKPEDTAVYYCNKTRLEPEYGYWGQGTQVTVSS | low polyreactivity |
| QVQLVESVGALVQAGGSLRLSCAASGSTFRRNAMGWYRQAPGKERELVATITTRGGSTYYADSVKGRFTLSRDNAKNTVNLQMNSLKPEDTAVYYCAADRRSGYSRSKYGRGDYWGQGTQVTVSS | high polyreactivity |
| QVQLVESVGCLVQAGGSHRLSCAASVFIFGANAMGWYRQAPGKESELVAAIRWSSGTTYYADSVKGRFTISRDNAKNTVYLQINSLKPEDTAVYYCAAGGLARTWYAYYYWGQGTQVTVSS | low polyreactivity |
| QVQLVESVGGIVQAGGSLRLSCAASGGICYEYAMGWYRQAPGKERELVATISFNVASTYADSVKGRFTISRDNAKNTVYLQMNSLKPEDTAVDYCIADTYWDRDSRYDYWGLGTQVTVSS | low polyreactivity |
| QVQLVESVGGIVQAGGSLRLSCAASGRTFTYNVMGWYRQAPGKEMELVAAITSGGSNYADSVKGRFTISRDNAKNTVYLQMNSLTPEDTAGYYCATDYYEDVTIGYDYWGQGTQVTVSS | low polyreactivity |
